Target: T1, murine Flt3 (R&D 768-F3-050) (murine, UniProt Q00342 28-544)
T1 construct: Bought recombinant protein coated on the ELISA plate; also called receptor for Flt3L; recombinant CD135
T1 sequence (looked up): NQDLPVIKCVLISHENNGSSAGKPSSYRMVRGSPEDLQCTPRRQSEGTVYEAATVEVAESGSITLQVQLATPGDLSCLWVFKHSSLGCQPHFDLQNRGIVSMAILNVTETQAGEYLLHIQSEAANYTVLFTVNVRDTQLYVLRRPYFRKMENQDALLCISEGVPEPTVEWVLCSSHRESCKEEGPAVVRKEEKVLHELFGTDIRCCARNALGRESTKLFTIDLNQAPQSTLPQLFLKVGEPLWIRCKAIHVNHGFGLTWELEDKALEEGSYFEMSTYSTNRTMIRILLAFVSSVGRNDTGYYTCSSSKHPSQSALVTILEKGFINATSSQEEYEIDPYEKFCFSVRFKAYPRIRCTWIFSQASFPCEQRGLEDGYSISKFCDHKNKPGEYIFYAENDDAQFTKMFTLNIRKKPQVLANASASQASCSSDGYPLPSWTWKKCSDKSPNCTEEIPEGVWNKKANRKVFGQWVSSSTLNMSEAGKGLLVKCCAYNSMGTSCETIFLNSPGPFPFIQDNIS
Assay: ELISA: plate coated with murine Flt3, Flt3L variants titrated, detection with biotinylated anti-Flt3L and avidin-HRP
Procedure: Protein was cloned, produced, and purified as described in methods. Following purification, bands were confirmed at the expected sizes via SDS-PAGE under reducing conditions (WT at around 30 KDa with multiple bands due to glycosylation differences and Flt3L-MSA at around 75 KDa). Binding of each protein to the receptor for Flt3L (murine Flt3, R&D 768-F3-050) was then confirmed via ELISA. Briefly, high binding plates were coated overnight with 50 μL of 1 nM protein in a Carb/Bicarb buffer pH of 9. The plates were then washed and blocked using R&D blocking buffer before the addition of Flt3L variants at different concentrations in blocking buffer. Detection occurred using biotinylated αFlt3L and subsequent incubation with avidin-HRP. Binding was then visualized via incubation with TMB solution until highest concentrations reached an approximate absorbance of 1 and the reaction was stopped using 2N H2SO4.
High-bind plates (Corning #9018) were coated by incubating overnight at 4 C with 10 nM recombinant CD135 (R&D 768-F3-050) in […] sodium bicarbonate buffer at pH 9.2. Following coating, plates were washed in PBST before blocking in 1× reagent diluent (R&D DY995) for 2 hours at RT. Samples were then diluted to the indicated concentration in triplicate using the same reagent diluent. […] Quantification occurred by reading the absorbance at 450 nm and 570 nm.

B1: wild type murine Flt3L (ligand)
chain: MTPDCYFSHSPISSNFKVKFRELTDHLLKDYPVTVAVNLQDEKHCKALWSLFLAQRWIEQLKTVAGSKMQTLLEDVNTEIHFVTSCTFQPLPECLRFVQTNISHLLKDTCTQLLALKPCIGKACQNFSRCLEVQCQPDSSTLLPPRSPIALEATELPEPRPRQ
notes: Made in HEK293F cells and glycosylated (multiple bands around 30 kDa); also called WT Flt3L; WT; not shown: it was purified over a HisTrap HP column, so it probably carries a His tag
**Q.** B1 was tested. Which Kd did it give?
**A.** Its Kd is 0.16 nM.

B2: Flt3L fused to Mouse Serum Albumin (Flt3L-MSA) (other)
chain: MTPDCYFSHSPISSNFKVKFRELTDHLLKDYPVTVAVNLQDEKHCKALWSLFLAQRWIEQLKTVAGSKMQTLLEDVNTEIHFVTSCTFQPLPECLRFVQTNISHLLKDTCTQLLALKPCIGKACQNFSRCLEVQCQPDSSTLLPPRSPIALEATELPEPRPRQGGGGSGGGGSEAHKSEIAHRYNDLGEQHFKGLVLIAFSQYLQKCSYDEHAKLVQEVTDFAKTCVADESAANCDKSLHTLFGDKLCAIPNLRENYGELADCCTKQEPERNECFLQHKDDNPSLPPFERPEAEAMCTSFKENPTTFMGHYLHEVARRHPYFYAPELLYYAEQYNEILTQCCAEADKESCLTPKLDGVKEKALVSSVRQRMKCSSMQKFGERAFKAWAVARLSQTFPNADFAEITKLATDLTKVNKECCHGDLLECADDRAELAKYMCENQATISSKLQTCCDKPLLKKAHCLSEVEHDTMPADLPAIAADFVEDQEVCKNYAEAKDVFLGTFLYEYSRRHPDYSVSLLLRLAKKYEATLEKCCAEANPPACYGTVLAEFQPLVEEPKNLVKTNCDLYEKLGEYGFQNAILVRYTQKAPQVSTPTLVEAARNLGRVGTKCCTLPEDQRLPCVEDYLSAILNRVCLLHEKTPVSEHVTKCCSGSLVERRPCFSALTVDETYVPKEFKAETFTFHSDICTLPEKEKQIKKQTALAELVKHKPKATAEQLKTVMDDFAQFLDTCCKAADKDTCFSTEGPNLVTRCKDALAHHHHHH
notes: also called MSA fused Flt3L; Flt3L-SA
**Q.** Which Kd does the source give for B2 here?
**A.** The Kd was 0.16 nM.

Source: patent US20250340607A1 (UNIVERSITY OF CHICAGO, published 2025)
